Where “and” joins values, the source holds several entries; their conditions need not be identical. Identical values can stand only once.
Columns and labels:
[1] = target: T1, UDP-glucuronosyltransferase 1A9 (Homo sapiens, UniProt O60656); experiment: Drug glucuronidation reaction catalyzed by human recombinant UGT1A9
T1 sequence (O60656 whole entry): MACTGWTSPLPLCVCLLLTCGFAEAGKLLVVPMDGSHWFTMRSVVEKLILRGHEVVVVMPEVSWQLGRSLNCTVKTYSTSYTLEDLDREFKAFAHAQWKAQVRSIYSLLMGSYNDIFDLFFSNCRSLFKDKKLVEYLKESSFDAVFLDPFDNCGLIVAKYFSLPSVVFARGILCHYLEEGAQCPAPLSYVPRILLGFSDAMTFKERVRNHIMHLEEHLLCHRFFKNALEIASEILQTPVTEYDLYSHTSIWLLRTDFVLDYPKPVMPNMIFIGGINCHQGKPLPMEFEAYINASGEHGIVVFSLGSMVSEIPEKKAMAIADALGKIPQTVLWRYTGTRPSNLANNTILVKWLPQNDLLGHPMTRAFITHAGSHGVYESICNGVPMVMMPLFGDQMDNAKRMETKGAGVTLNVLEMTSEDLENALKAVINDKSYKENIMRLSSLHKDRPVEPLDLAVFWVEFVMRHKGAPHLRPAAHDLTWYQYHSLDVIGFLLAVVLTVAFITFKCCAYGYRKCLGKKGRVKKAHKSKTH

[2] = target: UDP-glucuronosyltransferase 2B15 (Homo sapiens, UniProt P54855); experiment: Drug glucuronidation reaction catalyzed by human recombinant UGT2B15
Sequence of UDP-glucuronosyltransferase 2B15 (P54855 whole entry): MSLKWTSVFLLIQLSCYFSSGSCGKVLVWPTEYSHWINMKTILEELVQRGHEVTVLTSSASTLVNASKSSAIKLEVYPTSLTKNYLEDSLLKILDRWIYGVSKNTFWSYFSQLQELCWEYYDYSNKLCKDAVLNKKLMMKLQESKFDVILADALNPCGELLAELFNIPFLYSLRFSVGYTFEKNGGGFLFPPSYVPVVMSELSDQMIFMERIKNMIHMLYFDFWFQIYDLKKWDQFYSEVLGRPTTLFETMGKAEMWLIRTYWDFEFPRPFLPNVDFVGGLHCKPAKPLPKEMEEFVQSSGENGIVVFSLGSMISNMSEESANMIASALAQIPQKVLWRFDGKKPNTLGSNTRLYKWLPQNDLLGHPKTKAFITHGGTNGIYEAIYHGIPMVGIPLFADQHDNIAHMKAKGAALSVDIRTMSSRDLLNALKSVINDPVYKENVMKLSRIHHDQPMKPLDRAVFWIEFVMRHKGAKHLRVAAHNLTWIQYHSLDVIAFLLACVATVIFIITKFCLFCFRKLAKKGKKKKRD

[3] = target: T2, UDP-glucuronosyltransferase 1A4 (Homo sapiens, UniProt P22310); experiment: (§1) Drug glucuronidation reaction catalyzed by human recombinant UGT1A4
T2 sequence (P22310 whole entry): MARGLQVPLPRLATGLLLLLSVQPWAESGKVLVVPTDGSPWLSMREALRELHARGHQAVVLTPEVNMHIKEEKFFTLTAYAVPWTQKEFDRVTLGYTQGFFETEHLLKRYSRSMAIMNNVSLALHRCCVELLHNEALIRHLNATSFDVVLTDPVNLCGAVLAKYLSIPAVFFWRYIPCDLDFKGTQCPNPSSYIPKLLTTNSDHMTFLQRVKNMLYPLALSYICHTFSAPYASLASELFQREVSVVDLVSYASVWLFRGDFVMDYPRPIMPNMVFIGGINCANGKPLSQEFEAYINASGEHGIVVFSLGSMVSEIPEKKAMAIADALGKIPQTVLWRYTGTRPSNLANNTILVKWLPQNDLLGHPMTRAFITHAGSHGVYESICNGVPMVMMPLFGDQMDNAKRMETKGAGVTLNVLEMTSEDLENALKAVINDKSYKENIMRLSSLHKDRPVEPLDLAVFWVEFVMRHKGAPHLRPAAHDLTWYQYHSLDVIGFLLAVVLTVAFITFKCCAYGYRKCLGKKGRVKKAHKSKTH

[4] = target: T3, UDP-glucuronosyltransferase 1A1 (Homo sapiens, UniProt P22309); experiment: (§2) Drug glucuronidation reaction catalyzed by human recombinant UGT1A1
T3 sequence (P22309 whole entry): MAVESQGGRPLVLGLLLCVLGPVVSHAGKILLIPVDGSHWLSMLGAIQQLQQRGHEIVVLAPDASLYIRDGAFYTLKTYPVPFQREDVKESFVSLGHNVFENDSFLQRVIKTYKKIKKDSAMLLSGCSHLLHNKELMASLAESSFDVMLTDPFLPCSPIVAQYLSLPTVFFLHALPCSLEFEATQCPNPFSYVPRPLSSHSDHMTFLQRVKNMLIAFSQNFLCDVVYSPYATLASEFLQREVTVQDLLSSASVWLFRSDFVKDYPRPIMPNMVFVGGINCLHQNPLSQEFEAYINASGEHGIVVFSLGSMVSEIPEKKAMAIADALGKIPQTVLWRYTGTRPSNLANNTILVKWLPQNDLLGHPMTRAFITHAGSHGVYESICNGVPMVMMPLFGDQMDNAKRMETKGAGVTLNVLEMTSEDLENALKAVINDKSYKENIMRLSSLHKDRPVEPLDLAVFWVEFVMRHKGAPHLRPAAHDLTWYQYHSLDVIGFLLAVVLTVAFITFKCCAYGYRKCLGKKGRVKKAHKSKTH

[5] = substrate: CC(=O)Nc1ccc(O)cc1; experiment: as §2
[6] = substrate: CN1CC[C@]23c4c5ccc(O[C@@H]6O[C@H](C(=O)O)[C@@H](O)[C@H](O)[C@H]6O)c4O[C@H]2[C@@H](O)C=C[C@H]3[C@H]1C5; experiment: as §2
[7] = substrate: CCN(CC)C(=O)/C(C#N)=C\c1cc(O[C@@H]2O[C@@H](C(=O)O)[C@@H](O)[C@H](O)[C@@H]2O)c(O)c([N+](=O)[O-])c1; experiment: as §2
[8] = substrate: C=CCN1CC[C@]23c4c5ccc(O)c4O[C@H]2[C@@H](O)C=C[C@H]3[C@H]1C5; experiment: as §2
[9] = substrate: CCOC(=O)Nc1ccc(NCc2ccc(F)cc2)cc1N; experiment: as §2
[10] = substrate: O=C1[C@H](CC[C@H](O)c2ccc(F)cc2)[C@@H](c2ccc(O)cc2)N1c1ccc(F)cc1; experiment: as §2
[11] = substrate: O=C1CC[C@@]2(O)[C@H]3Cc4ccc(O)c5c4[C@@]2(CCN3CC2CC2)[C@H]1O5; experiment: as §2
[12] = substrate: CCc1c2c(nc3ccc(O)cc13)-c1cc3c(c(=O)n1C2)COC(=O)[C@]3(O)CC; experiment: as §2
[13] = substrate: CC(O)/C(=C(\c1ccccc1)c1ccc(OCCN(C)C)cc1)c1ccccc1; experiment: as §2
[14] = substrate: C#C[C@]1(O)CC[C@H]2[C@@H]3CCc4cc(O)ccc4[C@H]3CC[C@@]21C; experiment: as §2
[15] = substrate: COc1cc([C@@H]2c3cc4c(cc3[C@@H](O[C@@H]3O[C@@H]5CO[C@@H](C)O[C@H]5[C@H](O)[C@H]3O)[C@H]3COC(=O)[C@H]23)OCO4)cc(OC)c1O; experiment: as §2
[16] = substrate: CCN(CC)C(=O)/C(C#N)=C/c1cc(O[C@@H]2O[C@@H](C(=O)O)[C@@H](O)[C@H](O)[C@@H]2O)c(O)c([N+](=O)[O-])c1; experiment: as §2
[17] = substrate: CO[C@]12CC[C@@]3(C[C@@H]1[C@](C)(O)C(C)(C)C)[C@H]1Cc4ccc(O)c5c4[C@@]3(CCN1CC1CC1)[C@H]2O5; experiment: as §2
[18] = substrate: COc1c(C)c2c(c(O)c1C/C=C(\C)CCC(=O)O)C(=O)OC2; experiment: as §2
[19] = substrate: CN1CCC(=C2c3ccccc3CC(=O)c3sccc32)CC1; experiment: as §1
[20] = substrate: CN1CCC(=C2c3ccccc3C=Cc3ccccc32)CC1; experiment: as §1
[21] = substrate: CC[C@@H]([C@H](C)O)n1ncn(-c2ccc(N3CCN(c4ccc(OC[C@@H]5CO[C@@](Cn6cncn6)(c6ccc(F)cc6F)C5)cc4)CC3)cc2)c1=O; experiment: as §1
[22] = substrate: CCc1c2c(nc3ccc(O)cc13)-c1cc3c(c(=O)n1C2)COC(=O)[C@]3(O)CC; experiment: as §1
[23] = substrate: CC(O)/C(=C(\c1ccccc1)c1ccc(OCCN(C)C)cc1)c1ccccc1; experiment: as §1
[24] = substrate: CC/C(=C(\c1ccccc1)c1ccc(OCCN(C)C)cc1)c1ccccc1; experiment: as §1
[25] = substrate: Cc1c(Cl)cccc1Nc1ncccc1C(=O)O; experiment: not read
[26] = substrate: CN1CC[C@]23c4c5ccc(O[C@@H]6O[C@H](C(=O)O)[C@@H](O)[C@H](O)[C@H]6O)c4O[C@H]2[C@@H](O)C=C[C@H]3[C@H]1C5; experiment: (§3) Drug glucuronidation reaction catalyzed by human recombinant UGT1A3
[27] = substrate: CN1CCC(=C2c3ccccc3CC(=O)c3sccc32)CC1; experiment: as §3
[28] = substrate: CN(C)CCCN1c2ccccc2CCc2ccccc21; experiment: as §3
[29] = substrate: CN1CCC(=C2c3ccccc3C=Cc3ccccc32)CC1; experiment: as §3
[30] = substrate: CC(C(=O)O)c1cccc(C(=O)c2ccccc2)c1; experiment: as §3
[31] = substrate: O=C1[C@H](CC[C@H](O)c2ccc(F)cc2)[C@@H](c2ccc(O)cc2)N1c1ccc(F)cc1; experiment: as §3
[32] = substrate: CC(C)Cc1ccc(C(C)C(=O)O)cc1; experiment: as §3
[33] = substrate: CO[C@]12CC[C@@]3(C[C@@H]1[C@](C)(O)C(C)(C)C)[C@H]1Cc4ccc(O)c5c4[C@@]3(CCN1CC1CC1)[C@H]2O5; experiment: as §3

CC(O)/C(=C(\c1ccccc1)c1ccc(OCCN(C)C)cc1)c1ccccc1 (stereo in doubt; trans)
Vmax [1]: 72 pmol/min/mg protein
Vmax [2]: 70 pmol/min/mg protein
Vmax [3]: 547 pmol/min/mg protein
Vmax [4]: 166 pmol/min/mg protein

B1: UDP-glucuronosyltransferase 1A1 (Homo sapiens) (protein)
chain: MAVESQGGRPLVLGLLLCVLGPVVSHAGKILLIPVDGSHWLSMLGAIQQLQQRGHEIVVLAPDASLYIRDGAFYTLKTYPVPFQREDVKESFVSLGHNVFENDSFLQRVIKTYKKIKKDSAMLLSGCSHLLHNKELMASLAESSFDVMLTDPFLPCSPIVAQYLSLPTVFFLHALPCSLEFEATQCPNPFSYVPRPLSSHSDHMTFLQRVKNMLIAFSQNFLCDVVYSPYATLASEFLQREVTVQDLLSSASVWLFRSDFVKDYPRPIMPNMVFVGGINCLHQNPLSQEFEAYINASGEHGIVVFSLGSMVSEIPEKKAMAIADALGKIPQTVLWRYTGTRPSNLANNTILVKWLPQNDLLGHPMTRAFITHAGSHGVYESICNGVPMVMMPLFGDQMDNAKRMETKGAGVTLNVLEMTSEDLENALKAVINDKSYKENIMRLSSLHKDRPVEPLDLAVFWVEFVMRHKGAPHLRPAAHDLTWYQYHSLDVIGFLLAVVLTVAFITFKCCAYGYRKCLGKKGRVKKAHKSKTH
Km [5]: 9400 µM
Vmax [5]: 0.0013 µmol/min/mg
Km [6]: 18700 µM
Vmax [6]: 4.5e-06 µmol/min/mg
Km [7]: 93 µM
Vmax [7]: 5e-06 µmol/min/mg
Km [8]: 2070 µM
Vmax [8]: 2e-06 µmol/min/mg
Km [9]: 460 µM
Km [10]: 64 µM
Vmax [10]: 0.00071 µmol/min/mg
Km [11]: 1310 µM
Vmax [11]: 2e-06 µmol/min/mg
Km [12]: 24 µM
Vmax [12]: 0.000134 µmol/min/mg
Km [13]: 138 µM and 129 µM
Km [14]: 9 µM and 20 µM
Km [15]: 503 µM
Vmax [15]: 0.000267 µmol/min/mg
Km [16]: 31 µM
Vmax [16]: 4e-06 µmol/min/mg
Km [17]: 57 µM and 69 µM
Km [18]: 185 µM
Vmax [18]: 0.000336 µmol/min/mg

B2: UDP-glucuronosyltransferase 1A4 (Homo sapiens) (protein)
chain: MARGLQVPLPRLATGLLLLLSVQPWAESGKVLVVPTDGSPWLSMREALRELHARGHQAVVLTPEVNMHIKEEKFFTLTAYAVPWTQKEFDRVTLGYTQGFFETEHLLKRYSRSMAIMNNVSLALHRCCVELLHNEALIRHLNATSFDVVLTDPVNLCGAVLAKYLSIPAVFFWRYIPCDLDFKGTQCPNPSSYIPKLLTTNSDHMTFLQRVKNMLYPLALSYICHTFSAPYASLASELFQREVSVVDLVSYASVWLFRGDFVMDYPRPIMPNMVFIGGINCANGKPLSQEFEAYINASGEHGIVVFSLGSMVSEIPEKKAMAIADALGKIPQTVLWRYTGTRPSNLANNTILVKWLPQNDLLGHPMTRAFITHAGSHGVYESICNGVPMVMMPLFGDQMDNAKRMETKGAGVTLNVLEMTSEDLENALKAVINDKSYKENIMRLSSLHKDRPVEPLDLAVFWVEFVMRHKGAPHLRPAAHDLTWYQYHSLDVIGFLLAVVLTVAFITFKCCAYGYRKCLGKKGRVKKAHKSKTH
Km [19]: 59 µM and 86 µM
Km [20]: 62 µM
Vmax [20]: 4.9e-05 µmol/min/mg
Km [21]: 16 µM
Vmax [21]: 1.7e-05 µmol/min/mg
Km [22]: 147 µM
Vmax [22]: 0.000132 µmol/min/mg
Km [23]: 95 µM and 101 µM
Km [24]: 32 µM
Vmax [24]: 0.000402 µmol/min/mg

B3: UDP-glucuronosyltransferase 1A3 (Homo sapiens) (protein)
chain: MATGLQVPLPWLATGLLLLLSVQPWAESGKVLVVPIDGSHWLSMREVLRELHARGHQAVVLTPEVNMHIKEENFFTLTTYAISWTQDEFDRHVLGHTQLYFETEHFLKKFFRSMAMLNNMSLVYHRSCVELLHNEALIRHLNATSFDVVLTDPVNLCAAVLAKYLSIPTVFFLRNIPCDLDFKGTQCPNPSSYIPRLLTTNSDHMTFMQRVKNMLYPLALSYICHAFSAPYASLASELFQREVSVVDILSHASVWLFRGDFVMDYPRPIMPNMVFIGGINCANRKPLSQEFEAYINASGEHGIVVFSLGSMVSEIPEKKAMAIADALGKIPQTVLWRYTGTRPSNLANNTILVKWLPQNDLLGHPMTRAFITHAGSHGVYESICNGVPMVMMPLFGDQMDNAKRMETKGAGVTLNVLEMTSEDLENALKAVINDKSYKENIMRLSSLHKDRPVEPLDLAVFWVEFVMRHKGAPHLRPAAHDLTWYQYHSLDVIGFLLAVVLTVAFITFKCCAYGYRKCLGKKGRVKKAHKSKTH
Km [25]: 624 µM
Vmax [25]: 5.2e-05 µmol/min/mg
Km [26]: 3200 µM
Vmax [26]: 1e-05 µmol/min/mg
Km [27]: 225 µM and 123 µM
Km [28]: 472 µM
Vmax [28]: 1e-05 µmol/min/mg
Km [29]: 240 µM
Vmax [29]: 0.000134 µmol/min/mg
Km [30]: 84 µM
Vmax [30]: 7.6e-05 µmol/min/mg
Km [31]: 42 µM
Vmax [31]: 0.00048 µmol/min/mg
Km [32]: 230 µM
Vmax [32]: 8.8e-05 µmol/min/mg
Km [33]: 55 µM
Vmax [33]: 7.5e-05 µmol/min/mg

Source: ChEMBL document CHEMBL1908105, “UDP-glucuronosyltransferases and clinical drug-drug interactions” (Pharmacol Ther, 2005)
